Experimental data: US12134789B2, “Construction method and applications of glycosyltransferase BS-YjiC mutant” (Northwest university, priority 2023, dated 2024)
Positions count from the first letter of the chain named. Numbers in names are those of the source. Where “and” joins values, the source holds several entries; their conditions need not be identical. Equal values may be shown once.

B1: WT: wild-type glycosyltransferase BS-YjiC from Bacillus subtilis 168, amino acid sequence SEQ ID NO: 1 (protein)
chain: MKKYHISMINIPAYGHVNPTLALVEKLCEKGHRVTYATTEEFAPAVQQAGGEALIYHTSLNIDPKQIREMMEKNDAPLSLLKESLSILPQLEELYKDDQPDLIIYDFVALAGKLFAEKLNVPVIKLCSSYAQNESFQLGNEDMLKKIREAEAEFKAYLEQEKLPAVSFEQLAVPEALNIVFMPKSFQIQHETFDDRFCFVGPSLGERKEKESLLIDKDDRPLMLISLGTAFNAWPEFYKMCIKAFRDSSWQVIMSVGKTIDPESLEDIPANFTIRQSVPQLEVLEKADLFISHGGMNSTMEAMNAGVPLVVIPQMYEQELTANRVDELGLGVYLPKEEVTVSSLQEAVQAVSSDQELLSRVKNMQKDVKEAGGAERAAAEIEAFMKKSAVPQ
B2: K125I/N178I: BS-YjiC (SEQ ID NO: 1) double mutant: lysine into isoleucine (K125I) and asparagine 178 into isoleucine (protein)
chain: B1 chain with K125I, N178I
B3: K125I/P313W: BS-YjiC (SEQ ID NO: 1) double mutant: lysine into isoleucine (K125I) and proline 313 into tryptophan (protein)
chain: B1 chain with K125I, P313W
B4: K125I: BS-YjiC (SEQ ID NO: 1) mutant with lysine mutated into isoleucine (K125I) (protein)
chain: B1 chain with K125I
B5: N178I: BS-YjiC (SEQ ID NO: 1) mutant with asparagine at the 178th position mutated into isoleucine (protein)
chain: B1 chain with N178I
B6: P313W: BS-YjiC (SEQ ID NO: 1) mutant with proline at the 313th position mutated into tryptophan (protein)
chain: B1 chain with P313W

Test: Thermal stability: residual enzyme activity after incubation at 45° C.
Type: biochemical
Conditions: pure enzyme incubated in water bath at 45° C. for 90 min; enzyme without high-temperature treatment as blank control
Experimental: (§1) The detection methods involved in the following embodiments are as follows. • 1. Determination method of enzyme activity of glycosyltransferase BS-YjiC: 50 microliters (μL) of pure enzyme with a concentration of 1.5 milligrams per milliliter (mg/mL) is added to 950 μL of a reaction system containing 50 millimoles per liter (mM) Tris hydrochloride (Tris-HCl) (pH 8.0) buffer of 1 mM protopanaxadiol (PPD), 5 mM uridine diphosphate glucose (UDPG) and 8 mM magnesium chloride (MgCl2); reacted in a water bath at 35° C. for 30 minutes (min), then added the same volume of methanol to terminate the enzymatic reaction, so as to obtain a reacted product. The reacted product is centrifuged, then the supernatant is taken and filtered with a 0.22 micrometers (μm) filter to obtain a reaction solution, and the residual amount of PPD in the reaction solution is detected by high-performance liquid chromatography (HPLC). • 2. Definition of enzyme activity: the amount of enzyme required to convert 1 micromole (μmol) of ginsenoside PPD per minute at 35° C. and pH 8.0 is defined as one unit of enzyme activity U.
After the prepared pure enzymes are incubated in a water bath at 45° C. for 90 min, 1 mL is taken, and the residual enzyme activity of the remaining enzymes is determined according to the enzyme activity determination method of the glycosyltransferase BS-YjiC, and the percentage of residual enzyme activity is obtained by taking the enzyme activity of the pure enzyme solution without high-temperature treatment as a blank control.
The pure enzyme solutions containing wild-type glycosyltransferase BS-YjiC, K125I, N178I, P313W, K125I/N178I and K125I/P313W prepared in the step 2 of the embodiment 6 are taken, respectively, then put in a constant temperature water bath at 45° C., and sampled every 30 min. The residual enzyme activity of glycosyltransferase BS-YjiC is measured according to the enzyme activity determination method, and its thermal stability is compared.

| Molecule | Residual enzyme activity (%) |
| --- | --- |
| B1 | 84.6% |
| B2 | 98.3% and 98.25% |
| B3 | 95.1% and 95.43% |
| B4 | 91.05% |
| B5 | 87.42% |
| B6 | 89.48% |

Test: Initial enzyme activity of pure enzyme solutions
Type: biochemical
Conditions: 35° C., pH 8.0, 1 mM PPD, 5 mM UDPG
Experimental: as §1
The pure enzyme solutions containing the wild-type glycosyltransferase BS-YjiC, K125I, N178I, P313W, K125I/N178I, and K125I/P313W prepared above are detected respectively, and the results are shown in Table 2.

| Molecule | Initial enzyme activity (%) |
| --- | --- |
| B1 | 100% |
| B2 | 106.47% |
| B3 | 105.13% |
| B4 | 103.15% |
| B5 | 98.76% |
| B6 | 96.53% |

Test: Kinetic parameters with PPD as substrate (HPLC)
Type: biochemical
Conditions: 50-1000 μM PPD, 10 mM UDPG, 8 mM MgCl2, pH 8.0, 35° C., 30 min
Experimental: 0.22 μg of pure enzyme is added into 50 mM […] (pH 8.0) buffer containing 10 mM UDPG and 8 mM MgCl2, added 50, 100, 200, 300, 400, 500, 600, 800 and 1000 μM PPD respectively, reacted at 35° C. in water bath for 30 min, and then then an equal volume of methanol is added to terminate the enzymatic reaction. The reacted products are centrifuged, then the supernatants are taken and filtered by a 0.22 μm filter to obtain reaction solutions, and the remaining amount of PPD in the reaction solutions is detected by HPLC.

| Molecule | Kcat | Km | Vmax |
| --- | --- | --- | --- |
| B1 | 0.96 ± 0.06 s⁻¹ | 132 ± 32.1 µM | 8.32 ± 0.36 U g^−1 |
| B2 | 1.01 ± 0.05 s⁻¹ | 117 ± 22.5 µM | 8.82 ± 0.45 U g^−1 |
| B3 | 0.98 ± 0.05 s⁻¹ | 121 ± 23.1 µM | 8.56 ± 0.44 U g^−1 |
| B4 | 0.99 ± 0.05 s⁻¹ | 128 ± 22.4 µM | 8.60 ± 0.41 U g^−1 |
| B5 | 1.01 ± 0.07 s⁻¹ | 132 ± 33.8 µM | 8.75 ± 0.62 U g^−1 |
| B6 | 1.11 ± 0.08 s⁻¹ | 136 ± 32 µM | 8.94 ± 0.60 U g^−1 |

Test: Melting temperature Tm of the enzyme
Type: physicochemical
Conditions: not given

| Molecule | melting temperature Tm | increase of melting temperature Tm over natural glycosyltransferase BS-YjiC |
| --- | --- | --- |
| B1 | 47.30 °C | – |
| B2 | 54.51 °C | 7.21 °C |
| B3 | 53.07 °C | 5.77 °C |
